Assay results published in IntAct's records for PubMed 21422170.

B1: Natural cytotoxicity triggering receptor 3 (Homo sapiens), O14931 (parent)
chain: MAWMLLLILIMVHPGSCALWVSQPPEIRTLEGSSAFLPCSFNASQGRLAIGSVTWFRDEVVPGKEVRNGTPEFRGRLAPLASSRFLHDHQAELHIRDVRGHDASIYVCRVEVLGLGVGTGNGTRLVVEKEHPQLGAGTVLLLRAGFYAVSFLSVAVGSTVYYQGKCLTWKGPRRQLPAVVPAPLPPPCGSSAHLLPPVPGG
partner: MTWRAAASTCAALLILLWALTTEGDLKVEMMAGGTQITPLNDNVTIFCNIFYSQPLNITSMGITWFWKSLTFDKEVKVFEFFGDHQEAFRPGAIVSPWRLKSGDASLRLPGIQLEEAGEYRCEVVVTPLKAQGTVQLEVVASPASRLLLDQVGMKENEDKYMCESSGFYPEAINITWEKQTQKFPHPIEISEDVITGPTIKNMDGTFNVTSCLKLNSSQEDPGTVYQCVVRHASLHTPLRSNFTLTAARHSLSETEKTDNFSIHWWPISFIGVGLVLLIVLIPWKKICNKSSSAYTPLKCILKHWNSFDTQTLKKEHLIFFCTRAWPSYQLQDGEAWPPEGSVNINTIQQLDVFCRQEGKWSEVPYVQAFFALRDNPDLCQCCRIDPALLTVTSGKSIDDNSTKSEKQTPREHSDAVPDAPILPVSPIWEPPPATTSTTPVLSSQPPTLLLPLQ

Variants of: B1
Conditions: with nr3l1_human NCR3LG1, Q68D85

Variant | effect of a mutation on the interaction
S52R | disrupting interaction strength
F85A;L86A | decreasing interaction strength
I50A;S52A | decreasing interaction strength
